Values belong to the substance of their own block, whether it stands above or below them.
Tests used:
[1] = molecular target: NY-ESO-1 peptide on HLA-A*02:01 (human); assay: IFN-gamma ELISA; PBL transduced with 1G4-LY, after one OKT3 stimulation, peptide-pulsed T2 cells; full-length, on cells
[2] = molecular target: … (SEQ ID NO: 26) on HLA-A2 of pulsed T2 cells; assay: cell-based or functional assay
[3] = molecular target: … (SEQ ID NO: 27) on HLA-A2 of pulsed T2 cells; assay: cell-based or functional assay
[4] = molecular target: NY-ESO-1 157-165 peptide … (SEQ ID NO: 2) on HLA-A2 of peptide-pulsed cells; assay: cell-based or functional assay
[5] = molecular target: … (SEQ ID NO: 28) on HLA-A2 of pulsed T2 cells; assay: cell-based or functional assay
[6] = molecular target: … (SEQ ID NO: 23) on HLA-A2 of pulsed T2 cells; assay: cell-based or functional assay
[7] = molecular target: … (SEQ ID NO: 24) on HLA-A2 of pulsed T2 cells; assay: cell-based or functional assay
[8] = molecular target: … (SEQ ID NO: 25) on HLA-A2 of pulsed T2 cells; assay: cell-based or functional assay

lowest peptide concentration recognised [1]: < 0.1 ng/mL
IFN-γ (pg/ml); Donor K PBL, T2 + 1 ng/µL peptide [2]: 884 pg/mL
IFN-γ (pg/ml); Donor K PBL, T2 + 10 ng/µL peptide [2]: 1110 pg/mL
IFN-γ (pg/ml); Donor L PBL, T2 + 1 ng/µL peptide [2]: 220 pg/mL
IFN-γ (pg/ml); Donor L PBL, T2 + 10 ng/µL peptide [2]: 297 pg/mL
IFN-γ (pg/ml); Donor K PBL, T2 + 1 ng/µL peptide [3]: 457 pg/mL
IFN-γ (pg/ml); Donor K PBL, T2 + 10 ng/µL peptide [3]: 5670 pg/mL
IFN-γ (pg/ml); Donor L PBL, T2 + 1 ng/µL peptide [3]: 208 pg/mL
IFN-γ (pg/ml); Donor L PBL, T2 + 10 ng/µL peptide [3]: 1030 pg/mL
IFN-γ (pg/ml); Donor H after expanding numbers of cells, T2 + 0.1 ng/µl peptide [4]: 89 pg/mL
IFN-γ (pg/ml); Donor H after expanding numbers of cells, T2 + 1 ng/µl peptide [4]: 512 pg/mL
IFN-γ (pg/ml); Donor H after expanding numbers of cells, T2 + 10 ng/µl peptide [4]: 2970 pg/mL
IFN-γ (pg/ml); Donor H after expanding numbers of cells, T2 + 100 ng/µl peptide [4]: 4340 pg/mL
IFN-γ (pg/ml); Donor H after stimulation with OKT3, T2 + 0.1 ng/µl peptide [4]: 1400 pg/mL
IFN-γ (pg/ml); Donor H after stimulation with OKT3, T2 + 1 ng/µl peptide [4]: 1710 pg/mL
IFN-γ (pg/ml); Donor H after stimulation with OKT3, T2 + 10 ng/µl peptide [4]: 3020 pg/mL
IFN-γ (pg/ml); Donor H after stimulation with OKT3, T2 + 100 ng/µl peptide [4]: 3780 pg/mL
IFN-γ (pg/ml); Donor K PBL, T2 + 1 ng/µL peptide [4]: 678 pg/mL
IFN-γ (pg/ml); Donor K PBL, T2 + 10 ng/µL peptide [4]: 3760 pg/mL
IFN-γ (pg/ml); Donor L PBL, T2 + 1 ng/µL peptide [4]: 184 pg/mL
IFN-γ (pg/ml); Donor L PBL, T2 + 10 ng/µL peptide [4]: 754 pg/mL
IFN-γ (pg/ml); Patient 1 PBL S1D7, T2 + 0.1 ng/ml peptide [4]: 0 pg/mL
IFN-γ (pg/ml); Patient 1 PBL S1D7, T2 + 1 ng/ml peptide [4]: 677 pg/mL
IFN-γ (pg/ml); Patient 1 PBL S1D7, T2 + 10 ng/ml peptide [4]: 1090 pg/mL
IFN-γ (pg/ml); Patient 1 PBL S1D7, T2 + 100 ng/ml peptide [4]: 1600 pg/mL
IFN-γ (pg/ml); Patient 1 PBL S1D7, T2 + 1 µg/ml peptide [4]: 2170 pg/mL
IFN-γ (pg/ml); Patient 1 expanded PBL S2D9, T2 + 0.1 ng/ml peptide [4]: 1330 pg/mL
IFN-γ (pg/ml); Patient 1 expanded PBL S2D9, T2 + 1 ng/ml peptide [4]: 7260 pg/mL
IFN-γ (pg/ml); Patient 1 expanded PBL S2D9, T2 + 10 ng/ml peptide [4]: 16200 pg/mL
IFN-γ (pg/ml); Patient 1 expanded PBL S2D9, T2 + 100 ng/ml peptide [4]: 21600 pg/mL
IFN-γ (pg/ml); Patient 1 expanded PBL S2D9, T2 + 1 µg/ml peptide [4]: 30600 pg/mL
IFN-γ (pg/ml); Patient 2 PBL S1D7, T2 + 0.1 ng/ml peptide [4]: 40 pg/mL
IFN-γ (pg/ml); Patient 2 PBL S1D7, T2 + 1 ng/ml peptide [4]: 291 pg/mL
IFN-γ (pg/ml); Patient 2 PBL S1D7, T2 + 10 ng/ml peptide [4]: 879 pg/mL
IFN-γ (pg/ml); Patient 2 PBL S1D7, T2 + 100 ng/ml peptide [4]: 1280 pg/mL
IFN-γ (pg/ml); Patient 2 PBL S1D7, T2 + 1 µg/ml peptide [4]: 2440 pg/mL
IFN-γ (pg/ml); Patient 2 expanded PBL S2D9, T2 + 0.1 ng/ml peptide [4]: 662 pg/mL
IFN-γ (pg/ml); Patient 2 expanded PBL S2D9, T2 + 1 ng/ml peptide [4]: 2500 pg/mL
IFN-γ (pg/ml); Patient 2 expanded PBL S2D9, T2 + 10 ng/ml peptide [4]: 6800 pg/mL
IFN-γ (pg/ml); Patient 2 expanded PBL S2D9, T2 + 100 ng/ml peptide [4]: 10600 pg/mL
IFN-γ (pg/ml); Patient 2 expanded PBL S2D9, T2 + 1 µg/ml peptide [4]: 19400 pg/mL
lowest peptide concentration on T2 cells that was recognized (IFN-γ) [4]: 0.1 ng/mL
IFN-γ (pg/ml); Donor K PBL, T2 + 1 ng/µL peptide [5]: 0 pg/mL
IFN-γ (pg/ml); Donor K PBL, T2 + 10 ng/µL peptide [5]: 0 pg/mL
IFN-γ (pg/ml); Donor L PBL, T2 + 1 ng/µL peptide [5]: 82 pg/mL
IFN-γ (pg/ml); Donor L PBL, T2 + 10 ng/µL peptide [5]: 97 pg/mL
IFN-γ (pg/ml); Donor K PBL, T2 + 1 ng/µL peptide [6]: 1780 pg/mL
IFN-γ (pg/ml); Donor K PBL, T2 + 10 ng/µL peptide [6]: 3270 pg/mL
IFN-γ (pg/ml); Donor L PBL, T2 + 1 ng/µL peptide [6]: 370 pg/mL
IFN-γ (pg/ml); Donor L PBL, T2 + 10 ng/µL peptide [6]: 1380 pg/mL
IFN-γ (pg/ml); Donor K PBL, T2 + 1 ng/µL peptide [7]: 0 pg/mL
IFN-γ (pg/ml); Donor K PBL, T2 + 10 ng/µL peptide [7]: 0 pg/mL
IFN-γ (pg/ml); Donor L PBL, T2 + 1 ng/µL peptide [7]: 225 pg/mL
IFN-γ (pg/ml); Donor L PBL, T2 + 10 ng/µL peptide [7]: 185 pg/mL
IFN-γ (pg/ml); Donor K PBL, T2 + 1 ng/µL peptide [8]: 0 pg/mL
IFN-γ (pg/ml); Donor K PBL, T2 + 10 ng/µL peptide [8]: 0 pg/mL
IFN-γ (pg/ml); Donor L PBL, T2 + 1 ng/µL peptide [8]: 148 pg/mL
IFN-γ (pg/ml); Donor L PBL, T2 + 10 ng/µL peptide [8]: 294 pg/mL
Substance: 1G4-LY TCR

IFN-γ (pg/ml); Patient 1 PBL S1D7, T2 + 0.1 ng/ml peptide [4]: 99 pg/mL
IFN-γ (pg/ml); Patient 1 PBL S1D7, T2 + 1 ng/ml peptide [4]: 851 pg/mL
IFN-γ (pg/ml); Patient 1 PBL S1D7, T2 + 10 ng/ml peptide [4]: 1520 pg/mL
IFN-γ (pg/ml); Patient 1 PBL S1D7, T2 + 100 ng/ml peptide [4]: 2480 pg/mL
IFN-γ (pg/ml); Patient 1 PBL S1D7, T2 + 1 µg/ml peptide [4]: 2450 pg/mL
IFN-γ (pg/ml); Patient 1 expanded PBL S2D9, T2 + 0.1 ng/ml peptide [4]: 1280 pg/mL
IFN-γ (pg/ml); Patient 1 expanded PBL S2D9, T2 + 1 ng/ml peptide [4]: 6990 pg/mL
IFN-γ (pg/ml); Patient 1 expanded PBL S2D9, T2 + 10 ng/ml peptide [4]: 13500 pg/mL
IFN-γ (pg/ml); Patient 1 expanded PBL S2D9, T2 + 100 ng/ml peptide [4]: 19400 pg/mL
IFN-γ (pg/ml); Patient 1 expanded PBL S2D9, T2 + 1 µg/ml peptide [4]: 26400 pg/mL
IFN-γ (pg/ml); Patient 2 PBL S1D7, T2 + 0.1 ng/ml peptide [4]: 41 pg/mL
IFN-γ (pg/ml); Patient 2 PBL S1D7, T2 + 1 ng/ml peptide [4]: 397 pg/mL
IFN-γ (pg/ml); Patient 2 PBL S1D7, T2 + 10 ng/ml peptide [4]: 860 pg/mL
IFN-γ (pg/ml); Patient 2 PBL S1D7, T2 + 100 ng/ml peptide [4]: 1100 pg/mL
IFN-γ (pg/ml); Patient 2 PBL S1D7, T2 + 1 µg/ml peptide [4]: 1960 pg/mL
IFN-γ (pg/ml); Patient 2 expanded PBL S2D9, T2 + 0.1 ng/ml peptide [4]: 747 pg/mL
IFN-γ (pg/ml); Patient 2 expanded PBL S2D9, T2 + 1 ng/ml peptide [4]: 3550 pg/mL
IFN-γ (pg/ml); Patient 2 expanded PBL S2D9, T2 + 10 ng/ml peptide [4]: 7350 pg/mL
IFN-γ (pg/ml); Patient 2 expanded PBL S2D9, T2 + 100 ng/ml peptide [4]: 12700 pg/mL
IFN-γ (pg/ml); Patient 2 expanded PBL S2D9, T2 + 1 µg/ml peptide [4]: 19500 pg/mL
Substance: wild-type human anti-NY-ESO-1 TCR (1G4)
